Results from patent US20240263208A1, “CYTOCHROME P450 ENZYME” (HYPHA DISCOVERY LTD., priority 2021, published 2024).

How the values were obtained:
[1] = Oxidase activity testing, lyophilised recombinant P450/ferredoxin SeuF08/ferredoxin reductase SCF15A against ambroxide; format: biochemical
Experimental: (§1) Lyophilised material of recombinant P450, ferredoxin and ferredoxin reductase proteins was made as described in Example 4 and reconstituted in high purity water to the original volume. Biocatalysis was performed with shaking incubation at 27° C. in the following conditions: 100 mM potassium phosphate pH 8.0, 5 mM MgCl2 (both present in the reconstituted enzyme preparation) and 0.1 mg/ml substrate compound such as ambroxide (Sigma-Aldrich, UK), carbamazepine (Sigma-Aldrich, UK), diclofenac (Sigma-Aldrich, UK), tivantinib (MedChemtronica, Sweden), clarithromycin (Tokyo Chemical Industry, Japan), sclareol (Sigma-Aldrich, UK), celecoxib (LC Laboratories, USA), buparvaquone (Sigma-Aldrich, UK), BIRB796 (MedChemExpress, USA), vanoxerine (CiVentiChem, USA), valsartan (Tokyo Chemical Industry, Japan), ruxolitinib (LC Laboratories, USA), perindopril (Selleckchem, USA), solifenacin (Key Organics, UK), 7-ethoxycoumarin (Tokyo Chemical Industry, Japan), tofacitinib (LC Laboratories, USA), ebastine (Key Organics, UK), efavirenz (Key Organics, UK), propanalol (Sigma-Aldrich, UK) and tolbutamide (Key Organics, UK).
(§2) Concentrations of P450, ferredoxin and ferredoxin reductase were as extracted (Example 4). Reactions were initiated by addition of 10× stock of cofactor mixture (50 mM G6P, 10 mM NADP+, 10 UN/ml G6PDH) to provide a final volume of e.g., 10 μl to 90 μl for 100 μl total reaction volumes. After 16-20 hours, reactions were extracted with an equal volume of acetonitrile, centrifuged to remove precipitated proteins and conversion assessed by UPLC-MS analysis.
(§3) UPLC Data were Obtained as Follows: • Column: Acquity UPLC BEH Shield RP18 1.7 μm 2.1 mm i.d. 50 mm length • Solvents: H2O, B: Acetonitrile, both with 0.1% Formic acid • Flow rate: 1.0 ml/min • Detector: Waters Acquity UPLC PDA (UV-Vis detection) and Waters Acquity UPLC QDA (MS)
(§4) To confirm the identities of reaction products where known, their chromatographic retention time, mass and ultraviolet spectra were compared with those of authentic metabolite standards.
Representative results for the % conversions of ambroxide to oxidised (+16 Da) products for single point mutants at position T109 are shown in Table 2 below.

[2] = Oxidase activity testing against carbamazepine; format: biochemical; conditions: for +16 Da (1.18 min) 253 m/z: 2-hydroxycarbamazepine; for +16 Da (1.18 min) 253 m/z / +16 Da (1.14 min) 253 m/z / Parent (1.31 min) 237 m/z: relative MS peak area; for +16 Da (1.14 min) 253 m/z: carbamazepine epoxide; for Parent (1.31 min) 237 m/z: remaining carbamazepine, 0.1 mg/ml, 27° C., 16-20 hours; for Average % conversion: substrate carbamazepine, relative MS peak areas
Experimental: as §1, §2, §3, §4
Representative results for the % conversions of carbamazepine to oxidised (+16 Da) products for single point mutants at position L198 are shown in Table 3 below.

[3] = oxidised ambroxide product, relative MS peak area

Molecule	+16 Da (1.18 min) 253 m/z [2] [%]	+16 Da (1.14 min) 253 m/z [2] [%]	Parent (1.31 min) 237 m/z [2] [%]	+16 Da (1.50 min) 253 m/z [1, 3] [%]	+16 Da (1.60 min) 253 m/z [1, 3] [%]	+16 Da (2.04 min) 253 m/z [1, 3] [%]	Ambroxide (2.22 min) 237 m/z ([1]; remaining substrate, relative MS peak area, 0.1 mg/ml ambroxide, 27° C., 16-20 hours) [%]	Average % conversion ([1]; substrate ambroxide, relative MS peak areas) [%]	Average % conversion [2] [%]
SeuC10M1: P450SeuC10 with T109R mutation, SEQ ID NO: 6 (protein, SeuC10M1) MKIGTTHLTRLRGLSMTELTDITGPAAQAETVAFPQDRTCPYHPPTGYDPLRDGRPLSRVTLYDGREVWLVTAQATARALLADPRLSTDRRRDGFPVPTPRFAAGRDRRLALLGLDDPEHHRQRRLLIPSFTLKRATAQRPWIQRIVDELLDAMIARGPVADLVSAFALPVPSMVICELLGVPYADHEFFEEQSRRLLRGPTGADTTDARDRLEAYLGDLIDAKAKEAEPGDGILDDLVHNRLRAGELDRSVLVSLAVILLVAGHETTANMISLGTYTLLQHPERLAELRADPSLLPAVVEELLRMLSIAEGLQRLALEDIEIDGITIRAGEGVLFSTSVINRDTAVYEDPDDLDFHRADRHHVAFGFGIHQCLGQNLARAELEIALGSLFTRLPGLRLAAPAEEIPFKPGDTVQGMLELPVTW				40.7	0.0	0.0	59.3	40.7	
SeuC10M14: P450SeuC10 with L198V mutation, SEQ ID NO: 32 (protein, SeuC10M14) MKIGTTHLTRLRGLSMTELTDITGPAAQAETVAFPQDRTCPYHPPTGYDPLRDGRPLSRVTLYDGREVWLVTAQATARALLADPRLSTDRRRDGFPVPTPRFAAGRDRTLALLGLDDPEHHRQRRLLIPSFTLKRATAQRPWIQRIVDELLDAMIARGPVADLVSAFALPVPSMVICELLGVPYADHEFFEEQSRRLVRGPTGADTTDARDRLEAYLGDLIDAKAKEAEPGDGILDDLVHNRLRAGELDRSVLVSLAVILLVAGHETTANMISLGTYTLLQHPERLAELRADPSLLPAVVEELLRMLSIAEGLQRLALEDIEIDGITIRAGEGVLFSTSVINRDTAVYEDPDDLDFHRADRHHVAFGFGIHQCLGQNLARAELEIALGSLFTRLPGLRLAAPAEEIPFKPGDTVQGMLELPVTW	0.0	43.7	56.3						43.7
SeuC10M8: P450SeuC10 with L198I mutation, SEQ ID NO: 20 (protein, SeuC10M8) MKIGTTHLTRLRGLSMTELTDITGPAAQAETVAFPQDRTCPYHPPTGYDPLRDGRPLSRVTLYDGREVWLVTAQATARALLADPRLSTDRRRDGFPVPTPRFAAGRDRTLALLGLDDPEHHRQRRLLIPSFTLKRATAQRPWIQRIVDELLDAMIARGPVADLVSAFALPVPSMVICELLGVPYADHEFFEEQSRRLIRGPTGADTTDARDRLEAYLGDLIDAKAKEAEPGDGILDDLVHNRLRAGELDRSVLVSLAVILLVAGHETTANMISLGTYTLLQHPERLAELRADPSLLPAVVEELLRMLSIAEGLQRLALEDIEIDGITIRAGEGVLFSTSVINRDTAVYEDPDDLDFHRADRHHVAFGFGIHQCLGQNLARAELEIALGSLFTRLPGLRLAAPAEEIPFKPGDTVQGMLELPVTW	0.0	35.3	64.7						35.3
SeuC10M12: P450SeuC10 with L198M mutation, SEQ ID NO: 28 (protein, SeuC10M12) MKIGTTHLTRLRGLSMTELTDITGPAAQAETVAFPQDRTCPYHPPTGYDPLRDGRPLSRVTLYDGREVWLVTAQATARALLADPRLSTDRRRDGFPVPTPRFAAGRDRTLALLGLDDPEHHRQRRLLIPSFTLKRATAQRPWIQRIVDELLDAMIARGPVADLVSAFALPVPSMVICELLGVPYADHEFFEEQSRRLMRGPTGADTTDARDRLEAYLGDLIDAKAKEAEPGDGILDDLVHNRLRAGELDRSVLVSLAVILLVAGHETTANMISLGTYTLLQHPERLAELRADPSLLPAVVEELLRMLSIAEGLQRLALEDIEIDGITIRAGEGVLFSTSVINRDTAVYEDPDDLDFHRADRHHVAFGFGIHQCLGQNLARAELEIALGSLFTRLPGLRLAAPAEEIPFKPGDTVQGMLELPVTW	0.0	40.5	59.5						40.5
SeuC10M16: P450SeuC10 with L198N mutation, SEQ ID NO: 36 (protein, SeuC10M16) MKIGTTHLTRLRGLSMTELTDITGPAAQAETVAFPQDRTCPYHPPTGYDPLRDGRPLSRVTLYDGREVWLVTAQATARALLADPRLSTDRRRDGFPVPTPRFAAGRDRTLALLGLDDPEHHRQRRLLIPSFTLKRATAQRPWIQRIVDELLDAMIARGPVADLVSAFALPVPSMVICELLGVPYADHEFFEEQSRRLNRGPTGADTTDARDRLEAYLGDLIDAKAKEAEPGDGILDDLVHNRLRAGELDRSVLVSLAVILLVAGHETTANMISLGTYTLLQHPERLAELRADPSLLPAVVEELLRMLSIAEGLQRLALEDIEIDGITIRAGEGVLFSTSVINRDTAVYEDPDDLDFHRADRHHVAFGFGIHQCLGQNLARAELEIALGSLFTRLPGLRLAAPAEEIPFKPGDTVQGMLELPVTW	0.0	1.9	98.1						1.9

Now from value to molecule, other results behind:

+16 Da (1.18 min) 253 m/z [2] [%]	+16 Da (1.14 min) 253 m/z [2] [%]	Parent (1.31 min) 237 m/z [2] [%]	Molecule	+16 Da (1.50 min) 253 m/z [1, 3] [%]	+16 Da (1.60 min) 253 m/z [1, 3] [%]	+16 Da (2.04 min) 253 m/z [1, 3] [%]	Ambroxide (2.22 min) 237 m/z ([1]; remaining substrate, relative MS peak area, 0.1 mg/ml ambroxide, 27° C., 16-20 hours) [%]	Average % conversion ([1]; substrate ambroxide, relative MS peak areas) [%]	Average % conversion [2] [%]
0.0	3.9	96.1	SeuC10M19: P450SeuC10 with L198Y mutation, SEQ ID NO: 42 (protein, SeuC10M19) MKIGTTHLTRLRGLSMTELTDITGPAAQAETVAFPQDRTCPYHPPTGYDPLRDGRPLSRVTLYDGREVWLVTAQATARALLADPRLSTDRRRDGFPVPTPRFAAGRDRTLALLGLDDPEHHRQRRLLIPSFTLKRATAQRPWIQRIVDELLDAMIARGPVADLVSAFALPVPSMVICELLGVPYADHEFFEEQSRRLYRGPTGADTTDARDRLEAYLGDLIDAKAKEAEPGDGILDDLVHNRLRAGELDRSVLVSLAVILLVAGHETTANMISLGTYTLLQHPERLAELRADPSLLPAVVEELLRMLSIAEGLQRLALEDIEIDGITIRAGEGVLFSTSVINRDTAVYEDPDDLDFHRADRHHVAFGFGIHQCLGQNLARAELEIALGSLFTRLPGLRLAAPAEEIPFKPGDTVQGMLELPVTW						3.8
0.0	14.6	85.4	SeuC10M18: P450SeuC10 with L198H mutation, SEQ ID NO: 40 (protein, SeuC10M18) MKIGTTHLTRLRGLSMTELTDITGPAAQAETVAFPQDRTCPYHPPTGYDPLRDGRPLSRVTLYDGREVWLVTAQATARALLADPRLSTDRRRDGFPVPTPRFAAGRDRTLALLGLDDPEHHRQRRLLIPSFTLKRATAQRPWIQRIVDELLDAMIARGPVADLVSAFALPVPSMVICELLGVPYADHEFFEEQSRRLHRGPTGADTTDARDRLEAYLGDLIDAKAKEAEPGDGILDDLVHNRLRAGELDRSVLVSLAVILLVAGHETTANMISLGTYTLLQHPERLAELRADPSLLPAVVEELLRMLSIAEGLQRLALEDIEIDGITIRAGEGVLFSTSVINRDTAVYEDPDDLDFHRADRHHVAFGFGIHQCLGQNLARAELEIALGSLFTRLPGLRLAAPAEEIPFKPGDTVQGMLELPVTW						14.6
0.0	3.2	96.8	SeuC10M17: P450SeuC10 with L198D mutation, SEQ ID NO: 38 (protein, SeuC10M17) MKIGTTHLTRLRGLSMTELTDITGPAAQAETVAFPQDRTCPYHPPTGYDPLRDGRPLSRVTLYDGREVWLVTAQATARALLADPRLSTDRRRDGFPVPTPRFAAGRDRTLALLGLDDPEHHRQRRLLIPSFTLKRATAQRPWIQRIVDELLDAMIARGPVADLVSAFALPVPSMVICELLGVPYADHEFFEEQSRRLDRGPTGADTTDARDRLEAYLGDLIDAKAKEAEPGDGILDDLVHNRLRAGELDRSVLVSLAVILLVAGHETTANMISLGTYTLLQHPERLAELRADPSLLPAVVEELLRMLSIAEGLQRLALEDIEIDGITIRAGEGVLFSTSVINRDTAVYEDPDDLDFHRADRHHVAFGFGIHQCLGQNLARAELEIALGSLFTRLPGLRLAAPAEEIPFKPGDTVQGMLELPVTW						3.2
